Measured values as given in patent US20240368243A1.

What was measured:
[1] = target: … (SEQ ID NO: 1)-HLA-A*02 complex (soluble, biotinylated) (human); assay: SPR (BIAcore) or BLI (Octet) per Example 3, biotinylated pHLA immobilised, 25 C
[2] = target: … (SEQ ID NO: 1)-HLA-A*02 complex presented on antigen positive cancer cells (human); assay: cell-based or functional assay

B1: ImmTAC molecule comprising a79 (SEQ ID NO: 7) and b64 (SEQ ID NO: 12) (TCR, part only; not given: anti-CD3 scFv, linker, TCR constants, part only)
TCR alpha, part: GDAKTTQPNSMESNEEEPVHLPCNHSTISGTDYIHWYRQLPSQGPEYVIHGLTSNVNNRMASLAIAEDRKSSTLILHRATLRDAAVYYCILILGHSRLGNYIATFGKGTKLSVIP
TCR beta, part: DGGITQSPKYLFRKEGQNVTLSCEQNLNHDAMYWYRQDPGQGLRLIYYSQIMNDEQKGDIAEGYSVSREKKESFPLTVTSAQKNPTAFYLCASSWWTGGSAPIRFGPGTRLTVT
What does the source list for B1?
Kd [1]: 0.138 nM; t1/2 [1]: 6.38 h; EC50 (mel624), IFN-γ ELISPOT, activation of redirected T cells [2]: 0.0275 nM

B2: ImmTAC molecule comprising a79 (SEQ ID NO: 7) and b66 (SEQ ID NO: 23) (TCR, part only; not given: anti-CD3 scFv, linker, TCR constants, part only)
TCR alpha, part: GDAKTTQPNSMESNEEEPVHLPCNHSTISGTDYIHWYRQLPSQGPEYVIHGLTSNVNNRMASLAIAEDRKSSTLILHRATLRDAAVYYCILILGHSRLGNYIATFGKGTKLSVIP
TCR beta, part: DGGITQSPKYLFRKEGQNVTLSCEQNLNHDAMYWYRQDPGQGLRLIYYSQIMGDEQKGDIAEGYSVSREKKESFPLTVTSAQKNPTAFYLCASSPWTGGSAPIRFGPGTRLTVT
Which Kd [1] does the source give for B2 here?
Its Kd is 0.089 nM.

And the t1/2 [1]?
The t1/2 was 9.16 h.

What about the EC50 (mel624), IFN-γ ELISPOT, activation of redirected T cells [2] of the same binder?
Its EC50 (mel624), IFN-γ ELISPOT, activation of redirected T cells is 0.0167 nM.

B3: ImmTAC molecule comprising a79 (SEQ ID NO: 7) and b67 (SEQ ID NO: 13) (TCR, part only; not given: anti-CD3 scFv, linker, TCR constants, part only)
TCR alpha, part: GDAKTTQPNSMESNEEEPVHLPCNHSTISGTDYIHWYRQLPSQGPEYVIHGLTSNVNNRMASLAIAEDRKSSTLILHRATLRDAAVYYCILILGHSRLGNYIATFGKGTKLSVIP
TCR beta, part: DGGITQSPKYLFRKEGQNVTLSCEQNLNHDAMYWYRQDPGQGLRLIYYSQIMGDEQKGDIAEGYSVSREKKESFPLTVTSAQKNPTAFYLCASSWWTSGSAPIRFGPGTRLTVT
For B3, which Kd [1] is on record?
The Kd was 0.047 nM.

What about the t1/2 [1] of the same binder?
The t1/2 was 12.7 h.

What about the EC50 (mel624), IFN-γ ELISPOT, activation of redirected T cells [2] of the same binder?
Its EC50 (mel624), IFN-γ ELISPOT, activation of redirected T cells is 0.0263 nM.

B4: ImmTAC molecule comprising a79 (SEQ ID NO: 7) and b69 (SEQ ID NO: 14) (TCR, part only; not given: anti-CD3 scFv, linker, TCR constants, part only)
TCR alpha, part: GDAKTTQPNSMESNEEEPVHLPCNHSTISGTDYIHWYRQLPSQGPEYVIHGLTSNVNNRMASLAIAEDRKSSTLILHRATLRDAAVYYCILILGHSRLGNYIATFGKGTKLSVIP
TCR beta, part: DGGITQSPKYLFRKEGQNVTLSCEQNLNHDAMYWYRQDPGQGLRLIYYSQIMGDEQKGDIAEGYSVSREKKESFPLTVTSAQKNPTAFYLCASSWWTGGSAEIRFGPGTRLTVT
For B4, which Kd [1] is on record?
The Kd was 0.052 nM.

And the t1/2 [1]?
Its t1/2 is 20.4 h.

And the EC50 (mel624), IFN-γ ELISPOT, activation of redirected T cells [2]?
Its EC50 (mel624), IFN-γ ELISPOT, activation of redirected T cells is 0.0398 nM.

B5: ImmTAC molecule comprising a79 (SEQ ID NO: 7) and b71 (SEQ ID NO: 15) (TCR, part only; not given: anti-CD3 scFv, linker, TCR constants, part only)
TCR alpha, part: GDAKTTQPNSMESNEEEPVHLPCNHSTISGTDYIHWYRQLPSQGPEYVIHGLTSNVNNRMASLAIAEDRKSSTLILHRATLRDAAVYYCILILGHSRLGNYIATFGKGTKLSVIP
TCR beta, part: DGGITQSPKYLFRKEGQNVTLSCEQNLNHDAMYWYRQDPGQGLRLIYYSQIMGDEQKGDIAEGYSVSREKKESFPLTVTSAQKNPTAFYLCASSWWTGGSAPIYFGPGTRLTVT
For B5, which Kd [1] is on record?
Its Kd is 0.087 nM.

What about the t1/2 [1] of the same binder?
The t1/2 was 14.9 h.

What about the EC50 (mel624), IFN-γ ELISPOT, activation of redirected T cells [2] of the same binder?
Its EC50 (mel624), IFN-γ ELISPOT, activation of redirected T cells is 0.0318 nM.

B6: ImmTAC molecule comprising a79 (SEQ ID NO: 7) and b58 (SEQ ID NO: 21) (TCR, part only; not given: anti-CD3 scFv, linker, TCR constants, part only)
TCR alpha, part: GDAKTTQPNSMESNEEEPVHLPCNHSTISGTDYIHWYRQLPSQGPEYVIHGLTSNVNNRMASLAIAEDRKSSTLILHRATLRDAAVYYCILILGHSRLGNYIATFGKGTKLSVIP
TCR beta, part: DGGITQSPKYLFRKEGQNVTLSCEQNLNHDAMYWYRQDPGQGLRLIYYSQIMGDEQKGDIAEGYSVSREKKESFPLTVTSAQKNPTAFYLCASSWWTGGSSPISFGPGTRLTVT
How did the Kd [1] turn out when B6 was run?
Its Kd is 0.0231 nM.

What about the t1/2 [1] of the same binder?
Its t1/2 is 28.7 h.

And the EC50 (mel624), IFN-γ ELISPOT, activation of redirected T cells [2]?
The EC50 (mel624), IFN-γ ELISPOT, activation of redirected T cells was 0.0106 nM.

B7: ImmTAC molecule comprising a79 (SEQ ID NO: 7) and b73 (SEQ ID NO: 16) (TCR, part only; not given: anti-CD3 scFv, linker, TCR constants, part only)
TCR alpha, part: GDAKTTQPNSMESNEEEPVHLPCNHSTISGTDYIHWYRQLPSQGPEYVIHGLTSNVNNRMASLAIAEDRKSSTLILHRATLRDAAVYYCILILGHSRLGNYIATFGKGTKLSVIP
TCR beta, part: DGGITQSPKYLFRKEGQNVTLSCEQNLNHDAMYWYRQDPGQGLRLIYYSQIMGDEQKGDIAEGYSVSREKKESFPLTVTSAQKNPTAFYLCASSWWTGGAAPISFGPGTRLTVT
B7 was tested. Which Kd [1] did it give?
The Kd was 0.132 nM.

And the t1/2 [1]?
The t1/2 was 4.6 h.

And the EC50 (mel624), IFN-γ ELISPOT, activation of redirected T cells [2]?
The EC50 (mel624), IFN-γ ELISPOT, activation of redirected T cells was 0.0231 nM.

B8: ImmTAC molecule comprising a79 (SEQ ID NO: 7) and b75 (SEQ ID NO: 20) (TCR, part only; not given: anti-CD3 scFv, linker, TCR constants, part only)
TCR alpha, part: GDAKTTQPNSMESNEEEPVHLPCNHSTISGTDYIHWYRQLPSQGPEYVIHGLTSNVNNRMASLAIAEDRKSSTLILHRATLRDAAVYYCILILGHSRLGNYIATFGKGTKLSVIP
TCR beta, part: DGGITQSPKYLFRKEGQNVTLSCEQNLNHDAMYWYRQDPGQGLRLIYYSQIMGDEQKGDIAEGYSVSREKKESFPLTVTSAQKNPTAFYLCASSWWTGGSAPISFGPGTRLTVT
For B8, which Kd [1] is on record?
Its Kd is 0.0577 nM.

What about the t1/2 [1] of the same binder?
The t1/2 was 16.9 h.

What about the EC50 (mel624), IFN-γ ELISPOT, activation of redirected T cells [2] of the same binder?
The EC50 (mel624), IFN-γ ELISPOT, activation of redirected T cells was 0.0236 nM.
